# PMC10746786 (2023)
# B1: FLAG-tagged EIF4G2 WT [human] / HADHB [human (endogenous in HEK293T)] (parent complex)
# chain 1: MESAIAEGGASRFSASSGGGGSRGAPQHYPKTAGNSEFLGKTPGQNAQKWIPARSTRRDDNSAANNSANEKERHDAIFRKVRGILNKLTPEKFDKLCLELLNVGVESKLILKGVILLIVDKALEEPKYSSLYAQLCLRLAEDAPNFDGPAAEGQPGQKQSTTFRRLLISKLQDEFENRTRNVDVYDKRENPLLPEEEEQRAIAKIKMLGNIKFIGELGKLDLIHESILHKCIKTLLEKKKRVQLKDMGEDLECLCQIMRTVGPRLDHERAKSLMDQYFARMCSLMLSKELPARIRFLLQDTVELREHHWVPRKAFLDNGPKTINQIRQDAVKDLGVFIPAPMAQGMRSDFFLEGPFMPPRMKMDRDPLGGLADMFGQMPGSGIGTGPGVIQDRFSPTMGRHRSNQLFNGHGGHIMPPTQSQFGEMGGKFMKSQGLSQLYHNQSQGLLSQLQGQSKDMPPRFSKKGQLNADEISLRPAQSFLMNKNQVPKLQPQITMIPPSAQPPRTQTPPLGQTPQLGLKTNPPLIQEKPAKTSKKPPPSKEELLKLTETVVTEYLNSGNANEAVNGVREMRAPKHFLPEMLSKVIILSLDRSDEDKEKASSLISLLKQEGIATSDNFMQAFLNVLDQCPKLEVDIPLVKSYLAQFAARAIISELVSISELAQPLESGTHFPLFLLCLQQLAKLQDREWLTELFQQSKVNMQKMLPEIDQNKDRMLEILEGKGLSFLFPLLKLEKELLKQIKLDPSPQTIYKWIKDNISPKLHVDKGFVNILMTSFLQYISSEVNPPSDETDSSSAPSKEQLEQEKQLLLSFKPVMQKFLHDHVDLQVSALYALQVHCYNSNFPKGMLLRFFVHFYDMEIIEEEAFLAWKEDITQEFPGKGKALFQVNQWLTWLETAEEEESEEEAD
# chain 2: AAPAVQTKTKKTLAKPNIRNVVVVDGVRTPFLLSGTSYKDLMPHDLARAALTGLLHRTSVPKEVVDYIIFGTVIQEVKTSNVAREAALGAGFSDKTPAHTVTMACISANQAMTTGVGLIASGQCDVIVAGGVELMSDVPIRHSRKMRKLMLDLNKAKSMGQRLSLISKFRFNFLAPELPAVSEFSTSETMGHSADRLAAAFAVSRLEQDEYALRSHSLAKKAQDEGLLSDVVPFKVPGKDTVTKDNGIRPSSLEQMAKLKPAFIKPYGTVTAANSSFLTDGASAMLIMAEEKALAMGYKPKAYLRDFMYVSQDPKDQLLLGPTYATPKVLEKAGLTMNDIDAFEFHEAFSGQILANFKAMDSDWFAENYMGRKTKVGLPPLEKFNNWGGSLSLGHPFGATGCRLVMAAANRLRKEGGQYGLVAACAAGGQGHAMIVEAYPK
# B2: FLAG-tagged EIF4G2 WT [human] / PRRC2C [human (endogenous in HEK293T)] (parent complex)
# chain 1: B1 chain 1
# chain 2: MSEKSGQSTKAKDGKKYATLSLFNTYKGKSLETQKTTARHGLQSLGKVGISRRMPPPANLPSLKAENKGNDPNVNIVPKDGTGWASKQEQHEEEKTPEVPPAQPKPGVAAPPEVAPAPKSWASNKQGGQGDGIQVNSQFQQEFPSLQAAGDQEKKEKETNDDNYGPGPSLRPPNVACWRDGGKAAGSPSSSDQDEKLPGQDESTAGTSEQNDILKVVEKRIACGPPQAKLNGQQAALASQYRAMMPPYMFQQYPRMTYPPLHGPMRFPPSLSETNKGLRGRGPPPSWASEPERPSILSASELKELDKFDNLDAEADEGWAGAQMEVDYTEQLNFSDDDEQGSNSPKENNSEDQGSKASENNENKKETDEVSNTKSSSQIPAQPSVAKVPYGKGPSFNQERGTSSHLPPPPKLLAQQHPPPDRQAVPGRPGPFPSKQQVADEDEIWKQRRRQQSEISAAVERARKRREEEERRMEEQRKAACAEKLKRLDEKLGILEKQPSPEEIREREREKEREREKELEKEQEQEREKEREKDRERQQEKEKELEKEQEKQREMEKERKQEKEKELERQKEKEKELQKMKEQEKECELEKEREKLEEKIEPREPNLEPMVEKQESENSCNKEEEPVFTRQDSNRSEKEATPVVHETEPESGSQPRPAVLSGYFKQFQKSLPPRFQRQQEQMKQQQWQQQQQQGVLPQTVPSQPSSSTVPPPPHRPLYQPMQPHPQHLASMGFDPRWLMMQSYMDPRMMSGRPAMDIPPIHPGMIPPKPLMRRDQMEGSPNSSESFEHIARSARDHAISLSEPRMLWGSDPYPHAEPQQATTPKATEEPEDVRSEAALDQEQITAAYSVEHNQLEAHPKADFIRESSEAQVQKFLSRSVEDVRPHHTDANNQSACFEAPDQKTLSAPQEERISAVESQPSRKRSVSHGSNHTQKPDEQRSEPSAGIPKVTSRCIDSKEPIERPEEKPKKEGFIRSSEGPKPEKVYKSKSETRWGPRPSSNRREEVNDRPVRRSGPIKKPVLRDMKEEREQRKEKEGEKAEKVTEKVVVKPEKTEKKDLPPPPPPPQPPAPIQPQSVPPPIQPEAEKFPSTETATLAQKPSQDTEKPLEPVSTVQVEPAVKTVNQQTMAAPVVKEEKQPEKVISKDLVIERPRPDSRPAVKKESTLPPRTYWKEARERDWFPDQGYRGRGRGEYYSRGRSYRGSYGGRGRGGRGHTRDYPQYRDNKPRAEHIPSGPLRQREESETRSESSDFEVVPKRRRQRGSETDTDSEIHESASDKDSLSKGKLPKREERPENKKPVKPHSSFKPDNHVRIDNRLLEKPYVRDDDKAKPGFLPKGEPTRRGRGGTFRRGGRDPGGRPSRPSTLRRPAYRDNQWNPRQSEVPKPEDGEPPRRHEQFIPIAADKRPPKFERKFDPARERPRRQRPTRPPRQDKPPRFRRLREREAASKSNEVVAVPTNGTVNNVAQEPVNTLGDISGNKTPDLSNQNSSDQANEEWETASESSDFNERRERDEKKNADLNAQTVVKVGENVLPPKREIAKRSFSSQRPVDRQNRRGNNGPPKSGRNFSGPRNERRSGPPSKSGKRGPFDDQPAGTTGVDLINGSSAHHQEGVPNGTGQKNSKDSTGKKREDPKPGPKKPKEKVDALSQFDLNNYASVVIIDDHPEVTVIEDPQSNLNDDGFTEVVSKKQQKRLQDEERRKKEEQVIQVWNKKNANEKGRSQTSKLPPRFAKKQATGIQQAQSSASVPPLASAPLPPSTSASVPASTSAPLPATLTPVPASTSAPVPASTLAPVLASTSAPVPASPLAPVSASASVSASVPASTSAAAITSSSAPASAPAPTPILASVSTPASVTILASASIPILASALASTSAPTPAPAASSPAAPVITAPTIPASAPTASVPLAPASASAPAPAPTPVSAPNPAPPAPAQTQAQTHKPVQNPLQTTSQSSKQPPPSIRLPSAQTPNGTDYVASGKSIQTPQSHGTLTAELWDNKVAPPAVLNDISKKLGPISPPQPPSVSAWNKPLTSFGSAPSSEGAKNGQESGLEIGTDTIQFGAPASNGNENEVVPVLSEKSADKIPEPKEQRQKQPRAGPIKAQKLPDLSPVENKEHKPGPIGKERSLKNRKVKDAQQVEPEGQEKPSPATVRSTDPVTTKETKAVSEMSTEIGTMISVSSAEYGTNAKESVTDYTTPSSSLPNTVATNNTKMEDTLVNNVPLPNTLPLPKRETIQQSSSLTSVPPTTFSLTFKMESARKAWENSPNVREKGSPVTSTAPPIATGVSSSASGPSTANYNSFSSASMPQIPVASVTPTASLSGAGTYTTSSLSTKSTTTSDPPNICKVKPQQLQTSSLPSASHFSQLSCMPSLIAQQQQNPQVYVSQSAAAQIPAFYMDTSHLFNTQHARLAPPSLAQQQGFQPGLSQPTSVQQIPIPIYAPLQGQHQAQLSLGAGPAVSQAQELFSSSLQPYRSQPAFMQSSLSQPSVVLSGTAIHNFPTVQHQELAKAQSGLAFQQTSNTQPIPILYEHQLGQASGLGGSQLIDTHLLQARANLTQASNLYSGQVQQPGQTNFYNTAQSPSALQQVTVPLPASQLSLPNFGSTGQPLIALPQTLQPPLQHTTPQAQAQSLSRPAQVSQPFRGLIPAGTQHSMIATTGKMSEMELKAFGSGIDIKPGTPPIAGRSTTPTSSPFRATSTSPNSQSSKMNSIVYQKQFQSAPATVRMTQPFPTQFAPQILSQPNLVPPLVRAPHTNTFPAPVQRPPMALASQMPPPLTTGLMSHARLPHVARGPCGSLSGVRGNQAQAALKAEQDMKAKQRAEVLQSTQRFFSEQQQSKQIGGGKAQKVDSDSSKPPETLTDPPGVCQEKVEEKPPPAPSIATKPVRTGPIKPQAIKTEETKS
# B3: FLAG-tagged EIF4G2 WT [human] / EIF4A2 [human (endogenous in HEK293T)] (parent complex)
# chain 1: B1 chain 1
# chain 2: MSGGSADYNREHGGPEGMDPDGVIESNWNEIVDNFDDMNLKESLLRGIYAYGFEKPSAIQQRAIIPCIKGYDVIAQAQSGTGKTATFAISILQQLEIEFKETQALVLAPTRELAQQIQKVILALGDYMGATCHACIGGTNVRNEMQKLQAEAPHIVVGTPGRVFDMLNRRYLSPKWIKMFVLDEADEMLSRGFKDQIYEIFQKLNTSIQVVLLSATMPTDVLEVTKKFMRDPIRILVKKEELTLEGIKQFYINVEREEWKLDTLCDLYETLTITQAVIFLNTRRKVDWLTEKMHARDFTVSALHGDMDQKERDVIMREFRSGSSRVLITTDLLARGIDVQQVSLVINYDLPTNRENYIHRIGRGGRFGRKGVAINFVTEEDKRILRDIETFYNTTVEEMPMNVADLI
# Variants of: B1
# Experiment: co-immunoprecipitation followed by mass spectrometry; FLAG-tagged EIF4G2 transfected into HEK293T cells; corrected for EIF4G2 levels in IP; read off a plot
row,Variant,ratio to parent
1,chain 1 R178Q,~4.9

# Variants of: B2
# Experiment: as above
row,Variant,ratio to parent
1,chain 1 R165C,~2.4
2,chain 1 N785K,~1.6

# Variants of: B3
# Experiment: as above
row,Variant,ratio to parent
1,chain 1 R178Q,~5.6
